The numbers were not newly measured in article PMC3310390, which cites them from elsewhere.

Where two headings read alike, the source gives them in different places.

Usually Kd stands for the free concentration of one partner at which half of the binding sites on the other are occupied at equilibrium, for simple one-to-one binding.

Data set [1] addresses Sir3 (Saccharomyces cerevisiae) (UniProt P06701).
The target is the same in data set [2]. The source holds these as a separate data set.
For data set [3] the target is unchanged. This is another data set of the same source.

In the case of Sir3 (from UniProt P06701), the dissociation constant Kd in data set [1] was 2 nM.

With Sir2 (from UniProt P06700), the Kd in data set [2] was 60 nM. On to Sir2/Sir4 complex (from UniProt P06700), for which the Kd in data set [3] was 0.03 nM.
